Test results published in US7379820 (Pfizer, dated 2008).
Where a chain is given by its changes, count along the chain named.

T1: MBP-TRADD (full-length TRADD protein expressed as a MBP fusion) (UniProt Q15628 1-312)
T1 construct: mature; Immobilized on 96 well plates for ELISA
T1 sequence (looked up): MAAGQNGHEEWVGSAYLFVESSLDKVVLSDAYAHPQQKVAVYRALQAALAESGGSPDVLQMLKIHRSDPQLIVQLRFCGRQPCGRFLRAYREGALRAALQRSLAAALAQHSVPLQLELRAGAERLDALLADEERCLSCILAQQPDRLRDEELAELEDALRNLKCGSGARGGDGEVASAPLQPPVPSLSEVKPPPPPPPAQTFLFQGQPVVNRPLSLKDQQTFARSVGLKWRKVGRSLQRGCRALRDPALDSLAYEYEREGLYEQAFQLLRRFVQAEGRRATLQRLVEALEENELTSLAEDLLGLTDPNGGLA

B1: RIP DD E626A (other)
chain: MAIFDNTTSLTDKHLDPIRENLGKHWKNCARKLGFTQSQIDEIDHDYERDGLKAKVYQMLQKWVMREGIKGATVGKLAQALHQCSRIDLLSSLIYVSQNHHHHHHH
notes: Single point alanine mutant of the His-tagged RIP DD construct; soluble mutant
B2: RIP DD R603A (other)
chain: B1 chain with R31A, A54E
notes: as for B1
B3: RIP DD K599A (other)
chain: B1 chain with K27A, A54E
notes: Single point alanine mutant of the His-tagged RIP DD construct
B4: RIP DD K627A (other)
chain: B1 chain with A54E, K55A
notes: as for B3
B5: RIP DD K625A (other)
chain: B1 chain with K53A, A54E
notes: as for B3

Biological target: T1, MBP-TRADD (full-length TRADD protein …)
Assay: ELISA, MBP-TRADD immobilized on 96 well plates
Protocol: RIP DD binding assay. RIP DD binding to TRADD was determined by an enzyme-linked immunosorbent assay (ELISA). Ninety six well plates were coated overnight at 4° C. with 200 ng of MBP-TRADD, MBP-TNFR-1 DD, or MBP-IL1RacP (interleukin-1 receptor accessory protein) in coating buffer (25 mM MOPS pH 7.5, 150 mM NaCl, 10 mM DTT, 0.02% NaN_3). The plates were then incubated in blocking buffer (10 mM MOPS pH 7.5, 150 mM NaCl, 0.05% Tween 20, 0.1% Gelatin, 0.02% NaN_3) for one hour followed by one hour incubation with the different RIP DD proteins in binding buffer (100 mM Tris pH 7.5, 140 mM NaCl, 0.1 mM EDTA, 0.2% Triton X-100, 10 mM DTT). The plates were washed 4 times in 10 mM potassium phosphate buffer pH 7.4, 0.05% Tween 20. The bound His tagged proteins were then incubated for 30 minutes in 10 mM MOPS pH 7.5, 150 mM NaCl, 0.05% Tween 20, 0.02% NaN_3 anti-6× His biotinylated anti mouse antibody and strepavidin conjugated alkaline phosphatase. The plates were washed 4 times in 10 mM potassium phosphate buffer pH 7.4, 0.05% Tween. Tropix CDP-Star/Sapphire II solution was used for the luminescent detection of alkaline phosphatase.
Figure 4: FIGS. 4A and 4B. (A) Effect of the ionic strength on the binding of RIP-DD (30 μg/mL) to MBP-TRADD. (B) ELISA of RIP-DD binding to MBP-TRADD. MBP-TRADD was immobilized at 500 ng/well on 96 well plates. The reference at 100% is the binding of the wild type protein to MBP-TRADD. The values used for the determination of the binding percentage were obtained with ~30 μg/ml of soluble protein. Figure 4: Figure 5: FIG. 5. Sequence alignment of the death domains of FAS (SEQ ID NO:2) and RIP (SEQ ID NO:3). Identical residues and homologous residues are shaded. The helices identified from the NMR structure of FAS DD (Huang et al., 1996) are located above the sequence and the helices identified from the NMR structure of RIP DD are located below the sequence.

Question: Does B1 bind?
Answer: Result: no binding (tested: ~30 µg/ml of soluble protein)

Question: Does B2 bind?
Answer: Result: no binding (tested: ~30 µg/ml of soluble protein)

Question: Does B3 bind?
Answer: Result: no binding (tested: ~30 µg/ml of soluble protein)

Question: Does B4 bind?
Answer: Result: no binding (tested: ~30 µg/ml of soluble protein)

Question: Does B5 bind?
Answer: Result: no binding (tested: ~30 µg/ml of soluble protein)
